The record followed here is US20150023958A1 (SAMSUNG ELECTRONICS, published 2015).

As usually defined, the Kd is a measure of binding affinity in units of concentration.

For test [1], the target named is T1, human Ang2 (human, UniProt O15123 19-496).
T1 construct: Bought protein (R&D Systems); also called A2; angiopoietin 2
T1 sequence (looked up): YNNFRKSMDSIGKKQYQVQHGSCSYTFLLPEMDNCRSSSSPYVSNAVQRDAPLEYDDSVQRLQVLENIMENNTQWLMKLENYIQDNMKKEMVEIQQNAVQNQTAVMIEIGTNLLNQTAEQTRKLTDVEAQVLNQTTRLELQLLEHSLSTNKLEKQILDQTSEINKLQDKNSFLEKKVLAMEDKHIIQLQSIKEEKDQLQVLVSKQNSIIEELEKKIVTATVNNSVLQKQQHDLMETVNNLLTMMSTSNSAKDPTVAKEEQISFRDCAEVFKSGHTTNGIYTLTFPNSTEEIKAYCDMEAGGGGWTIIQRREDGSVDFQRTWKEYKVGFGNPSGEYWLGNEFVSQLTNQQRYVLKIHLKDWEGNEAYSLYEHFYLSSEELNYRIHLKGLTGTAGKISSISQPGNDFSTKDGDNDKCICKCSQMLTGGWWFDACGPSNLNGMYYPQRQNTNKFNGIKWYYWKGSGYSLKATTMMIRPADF
The experiment in a line: ELISA, Ang2 coated on plate, anti-human Fc-HRP detection. How it is done:
(§1) To measure binding capacities of fusion polypeptides to each target, ELISA (Enzyme-linked immunosorbent assay) was conducted. On a 96-well MaxiSorp™ flat-bottom plate (Nunc), 50 ul of human VEGF-C, VEGF-D, or Ang2 (R&D Systems) were coated in the concentration of […]. And then, the plate was washed 5 times with PBS containing 0.05% Tween-20, and then, blocked with PBS containing 1% BSA at room temperature for 2 hours. 50 ul of each fusion polypeptide was put in each well according to concentration, and then, the plate was incubated at room temperature for 2 hours. And then, it was washed 5 times with PBS containing 0.05% Tween-20, and then, HRP-conjugated anti-human Fc antibody (Sigma) was diluted to 1:5,000 with PBS containing 1% BSA and reacted at room temperature for 1 hour, and washed 5 times with PBS containing 0.1% Tween-20. Finally, to each well of the plate, 50 μl of TMB substrate (SIGMA) was added to cause color reaction, and then, the reaction was stopped with 50 μl of a 5N H₂SO₄ solution, and OD450 value was measured on a plate reader (Molecular Devices). Thereby, binding capacities (KD) of the manufactured fusion polypeptides to human VEGF-C, VEGF-D or Ang2 protein were measured.
For orientation: In an ELISA, binding on a coated surface is turned into a signal by an enzyme label.

The target of test [2] is T2, human VEGF-D (human, UniProt O43915 93-201, limits assumed).
T2 construct: Bought protein (R&D Systems); also called Vascular endothelial growth factor D
T2 sequence (looked up): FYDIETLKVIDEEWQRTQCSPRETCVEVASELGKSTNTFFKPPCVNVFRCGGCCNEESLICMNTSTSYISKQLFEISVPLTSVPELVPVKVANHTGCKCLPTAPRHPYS
The test is described as follows: ELISA, VEGF-D coated on plate, anti-human Fc-HRP detection. The method, then: as §1

The target in test [3] is T3, human VEGF-C (human, UniProt P49767 103-227).
T3 construct: Bought protein (R&D Systems); also called VC; Vascular endothelial growth factor C
T3 sequence (looked up): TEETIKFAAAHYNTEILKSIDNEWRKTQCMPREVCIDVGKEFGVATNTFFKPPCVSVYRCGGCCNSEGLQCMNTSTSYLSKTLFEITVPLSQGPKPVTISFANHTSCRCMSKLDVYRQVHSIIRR
The test is described as follows: ELISA, VEGF-C coated on plate, anti-human Fc-HRP detection. How it is done: as §1

B1: AV-body 1 (Fc fusion)
chain: AMDLILINSLPLVSDAETSLTCIASGWRPHEPITIGRDFEALMNQHQDPLEVTQDVTREWAKKVVWKREKASKINGAYFCEGRVRGEAIRIRTMKMRQQASFLPATLTMTVDKGDNVNISFKKVLIKEEDAVIYKNGSFIHSVPRHEVPDILEVHLPHAQPQDAGVYSARYIGGNLFTSAFTRLIVRRCEAQKWGPECNHLCTACMNNGVCHEDTGECICPPGFMGRTCEKACELHTFGRTCKERCSGQEGCKSYVFCLPDPYGCSCATGWKGLQCNEACHPGFYGPDCKLRCSCNNGEMCDRFQGCLCSPGWQGLQCEREGIEFSPFIASVSDQHGVVYITENKNKTVVIPCLGSISNLNVSLCARYPEKRFVPDGNRISWDSKKGFTIPSYMISYAGMVFCEAKINDESYQSIMYIVVVVGYRIYDVVLSPSHGIELSVGEKLVLNCTARTELNVGIDFNWEYPSSKHQHKKLVNRDLKTQSGSEMKKFLSTLTIDGVTRSDQGLYTCAASSGLMTKKNSTFVRVHE
notes: also called fusion polypeptide AV-body 1; Tie2-ECD/R2-2/R2-3-Fc; not shown: Fc fragment of human IgG1, fused to the C-terminus through the pFUSE-hIgG1-Fc1 vector (InvivoGen)
With B1, the Kd amounted to 45 nM in test [1], 170 nM in test [2] and 130 nM in test [3].

B2: V-body (Fc fusion)
chain: ASDYRSPFIASVSDQHGVVYITENKNKTVVIPCLGSISNLNVSLCARYPEKRFVPDGNRISWDSKKGFTIPSYMISYAGMVFCEAKINDESYQSIMYIVVVVGEQPFINKPDTLLVNRKDAMWVPCLVSIPGLNVTLRSQSSVLWPDGQEVVWDDRRGMLVSTPLLHDALYLQCETTWGDQDFLSNPFLVHITG
notes: Expressed in 293-F cells and purified on MabSelect SuRe; also called fusion polypeptide V-body; R2-2/R3-2-Fc; not shown: Fc fragment of human IgG1, fused to the C-terminus through the pFUSE-hIgG1-Fc1 vector (InvivoGen)
For B2, in test [1], the binding result is reported as “no binding”. Also, the Kd in test [2] and in test [3] was 100 nM throughout.

B3: AV-body 2 (Fc fusion)
chain: AMDLILINSLPLVSDAETSLTCIASGWRPHEPITIGRDFEALMNQHQDPLEVTQDVTREWAKKVVWKREKASKINGAYFCEGRVRGEAIRIRTMKMRQQASFLPATLTMTVDKGDNVNISFKKVLIKEEDAVIYKNGSFIHSVPRHEVPDILEVHLPHAQPQDAGVYSARYIGGNLFTSAFTRLIVRRCEAQKWGPECNHLCTACMNNGVCHEDTGECICPPGFMGRTCEKACELHTFGRTCKERCSGQEGCKSYVFCLPDPYGCSCATGWKGLQCNEACHPGFYGPDCKLRCSCNNGEMCDRFQGCLCSPGWQGLQCEREGIEFMQSKVLLAVALWLCVETRAASDYRSPFIASVSDQHGVVYITENKNKTVVIPCLGSISNLNVSLCARYPEKRFVPDGNRISWDSKKGFTIPSYMISYAGMVFCEAKINDESYQSIMYIVVVVGEQPFINKPDTLLVNRKDAMWVPCLVSIPGLNVTLRSQSSVLWPDGQEVVWDDRRGMLVSTPLLHDALYLQCETTWGDQDFLSNPFLVHITG
notes: also called fusion polypeptide AV-body 2; Tie2-ECD/R2-2/R3-2-Fc; not shown: Fc fragment of human IgG1, fused to the C-terminus through the pFUSE-hIgG1-Fc1 vector (InvivoGen)
As for B3, the Kd in test [1] came to 20 nM; in test [2] it was 42 nM; in test [3] it was 34 nM.
